Data set [1] deals with securin-separase fusion C2029S (catalytically dead) (Homo sapiens). The experiment in a line: fluorescence polarization. Particulars: 25 mM HEPES pH 7.8, 50 mM KCl, 5 mM MgCl2, 0.5 mM TCEP; 1 nM DNA; 30 min at 25 °C.
The target in data set [2] is active (apo, securin-free) human separase (human) (UniProt Q14674).
The target is the same in data set [3]. This is another data set of the same source.
Data set [4] shares this target. The source holds these as a separate data set.

Primed or numbered codes have the meaning given here. No end group written: not given here. *: point of attachment. Mca = COc1ccc2c(CC(=O)*)cc(=O)oc2c1; Dnp′ = not defined here

UniProt Q14674, sequence (Q14674 whole entry S1126A): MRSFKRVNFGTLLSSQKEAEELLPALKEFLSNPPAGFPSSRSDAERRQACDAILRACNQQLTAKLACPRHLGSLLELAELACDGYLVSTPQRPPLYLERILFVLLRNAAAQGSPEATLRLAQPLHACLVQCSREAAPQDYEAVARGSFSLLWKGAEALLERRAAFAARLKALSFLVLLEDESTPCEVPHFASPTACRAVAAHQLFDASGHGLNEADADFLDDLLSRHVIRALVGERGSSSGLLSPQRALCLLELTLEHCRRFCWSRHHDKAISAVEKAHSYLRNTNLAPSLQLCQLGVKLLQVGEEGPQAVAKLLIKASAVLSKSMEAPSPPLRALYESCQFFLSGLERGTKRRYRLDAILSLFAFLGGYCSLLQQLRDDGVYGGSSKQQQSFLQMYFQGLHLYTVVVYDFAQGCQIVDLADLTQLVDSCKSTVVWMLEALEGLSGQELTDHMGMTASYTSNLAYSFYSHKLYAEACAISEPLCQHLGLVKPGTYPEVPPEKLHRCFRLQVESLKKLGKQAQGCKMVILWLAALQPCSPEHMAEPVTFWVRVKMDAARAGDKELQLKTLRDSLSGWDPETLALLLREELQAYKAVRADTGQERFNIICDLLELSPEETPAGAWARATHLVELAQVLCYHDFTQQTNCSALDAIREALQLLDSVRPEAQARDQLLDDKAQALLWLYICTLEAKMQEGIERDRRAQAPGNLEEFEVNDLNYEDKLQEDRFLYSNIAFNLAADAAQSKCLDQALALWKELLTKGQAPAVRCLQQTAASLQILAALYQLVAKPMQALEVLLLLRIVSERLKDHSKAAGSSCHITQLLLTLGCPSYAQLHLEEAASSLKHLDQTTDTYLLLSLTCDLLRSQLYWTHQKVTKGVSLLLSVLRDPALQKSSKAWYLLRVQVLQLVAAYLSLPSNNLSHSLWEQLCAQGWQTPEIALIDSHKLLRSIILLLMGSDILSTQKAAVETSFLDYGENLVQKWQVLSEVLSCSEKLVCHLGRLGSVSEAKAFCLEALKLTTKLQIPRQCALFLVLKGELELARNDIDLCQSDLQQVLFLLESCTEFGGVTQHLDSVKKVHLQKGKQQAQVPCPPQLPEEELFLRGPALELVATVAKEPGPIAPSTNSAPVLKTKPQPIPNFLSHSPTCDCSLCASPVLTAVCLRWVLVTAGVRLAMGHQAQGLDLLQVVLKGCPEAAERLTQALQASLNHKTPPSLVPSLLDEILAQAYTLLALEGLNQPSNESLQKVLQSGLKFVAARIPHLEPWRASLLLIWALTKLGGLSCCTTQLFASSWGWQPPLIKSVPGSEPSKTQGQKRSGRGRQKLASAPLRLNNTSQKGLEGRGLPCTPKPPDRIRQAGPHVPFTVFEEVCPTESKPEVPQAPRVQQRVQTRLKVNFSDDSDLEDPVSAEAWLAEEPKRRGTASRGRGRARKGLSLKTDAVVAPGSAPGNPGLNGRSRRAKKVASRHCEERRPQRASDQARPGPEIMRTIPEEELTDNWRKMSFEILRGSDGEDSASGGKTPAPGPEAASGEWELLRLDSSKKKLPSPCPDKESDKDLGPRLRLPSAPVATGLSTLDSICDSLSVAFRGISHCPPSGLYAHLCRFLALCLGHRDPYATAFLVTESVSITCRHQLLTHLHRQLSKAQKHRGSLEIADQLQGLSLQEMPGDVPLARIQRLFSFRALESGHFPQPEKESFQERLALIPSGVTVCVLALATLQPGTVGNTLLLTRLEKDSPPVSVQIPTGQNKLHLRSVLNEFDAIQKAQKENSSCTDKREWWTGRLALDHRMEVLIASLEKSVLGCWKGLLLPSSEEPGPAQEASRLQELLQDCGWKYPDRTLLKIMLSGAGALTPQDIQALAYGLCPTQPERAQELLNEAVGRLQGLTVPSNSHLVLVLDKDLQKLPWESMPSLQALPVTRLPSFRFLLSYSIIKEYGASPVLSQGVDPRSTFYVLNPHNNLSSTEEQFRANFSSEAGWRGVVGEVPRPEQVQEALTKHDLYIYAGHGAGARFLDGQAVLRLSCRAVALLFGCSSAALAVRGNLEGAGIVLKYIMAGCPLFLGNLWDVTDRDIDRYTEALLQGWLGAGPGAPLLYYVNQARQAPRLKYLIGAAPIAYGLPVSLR

In the case of 50 bp 2, in data set [1], the Kd was 220 nM.

Molecule 50 bp registered a Kd in data set [1] of 300 nM.

25 bp came in with a Kd in data set [1] of 800 nM.

Turning to Mca-DDREIMREGS-{Dnp′} [Mca-…-Dnp, Scc1 site 1 substrate peptide], the KM of cleavage of the FRET dye-quencher peptide by purified active separase (Michaelis-Menten analysis) in data set [2] was found to be 70 µM.

B1: securin^RE fragment (aa 93-150) (domain or fragment)
chain: MTEKTVKAKSSVPASDDAYPEIEKFREFNPLDFESFDLPEEHQIAHLPLSGVPLMILD
modifications: also: 35S-methionine-labeled
The molecule B1 returned a cleavage of the 35S-labeled securin^RE fragment (93-150) by separase in vitro (SDS-PAGE, Phosphorimaging) in data set [3] of 50%.

B2: separase biosensor H2B-mRuby2-Scc1(142-467)-mNeonGreen, ^255Leu-Pro to Ala-Ala (domain or fragment)
chain: EITMREEVGNISILQENDFGDFGMDDREIMREGSAFEDDDMLVSTTTSNLLLESEQSTSNLNEKINHLEYEDQYKDDNFGEGNDGGILDDKLISNNDGGIFDDPPALSEAGVMAAEQPAHDDMDEDDNVSMGGPDSPDSVDPVEPMPTMTDQTTLVPNEEEAFALEPIDITVKETKAKRKRKLIVDSVKELDSKTIRAQLSDYSDIVTTLDLAPPTKKLMMWKETGGVEKLFSLPAQPLWNNRLLKLFTRCLTPLVPEDLRKRRKGGEADNLDEFLKEFENPEVPREDQQQQHQQRDVIDEPIIEEPSRLQESVMEASRTNIDESA
Turning to B2, the cleavage of the separase biosensor in U2OS cells in anaphase (loss of GFP relative to RFP on chromosomes); the enzyme is the endogenous separase of the cells in data set [4] amounted to 50%.

For the origin of these results see publication PMC6858450.
